Our source for the light-dependent NADPH production rate with FDX1 relative to FDX2 (FDX1/FDX2), PSI–FNR fractions (complex-associated FNR), 4 µM FDX and light-dependent NADPH production rate with FDX1 relative to FDX2 (FDX1/FDX2), PSI fractions with added soluble FNR (0.5 µM), 4 µM FDX values is PMC5683061.

Experiment [1] concerns the target Ferredoxin:NADP+ oxidoreductase (FNR), endogenous, complex-associated (C. reinhardtii (endogenous in strain cc124)) (UniProt P53991).
In experiment [2] the target is Ferredoxin:NADP+ oxidoreductase (FNR), C. reinhardtii, recombinant soluble (C. reinhardtii) (UniProt P53991).

Regarding “Ferredoxin 1 (FDX1), C. reinhardtii (natural protein)”, the light-dependent NADPH production rate with FDX1 relative to FDX2 (FDX1/FDX2), PSI–FNR fractions (complex-associated FNR), 4 µM FDX in experiment [1] was 23 fold. Moreover, the light-dependent NADPH production rate with FDX1 relative to FDX2 (FDX1/FDX2), PSI fractions with added soluble FNR (0.5 µM), 4 µM FDX in experiment [2] was 2.6 fold.
